Measured values taken from patent publication US20040005636A1, “Method for obtaining the binding affinities of a peptide library to a protein” (priority 2002, published 2004).
Ends that are not written are not given here.

What was measured:
[1] = molecular target: T1, hTRβ-LBD (ligand binding domain of thyroid hormone receptor β) (human, UniProt P10828 202-461); assay: fluorescence polarization, hTRβ-LBD titrated, T3 present; Table 3 prints >AL (assay limits) for this pair
T1 construct: Assayed with the small-molecule ligand T3 present
T1 sequence (looked up): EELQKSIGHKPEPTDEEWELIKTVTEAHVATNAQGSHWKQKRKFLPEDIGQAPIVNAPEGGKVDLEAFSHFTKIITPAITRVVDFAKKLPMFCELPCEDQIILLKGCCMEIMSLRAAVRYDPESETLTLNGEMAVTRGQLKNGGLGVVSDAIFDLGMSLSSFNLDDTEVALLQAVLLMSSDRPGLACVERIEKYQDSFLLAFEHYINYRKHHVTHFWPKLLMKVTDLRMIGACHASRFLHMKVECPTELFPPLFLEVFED
Method: (§1) The concentration of protein varied between 0.001-20 μM in the following way. In 96 well plates, hTRβ-LBD or hERα-LBD was serially diluted from 40 μM to 0.002 μM in binding buffer (50 mM Sodium Phosphate, 150 mM NaCl, pH 7.2, 1 mM DTT, 1 mM EDTA, 0.01% NP40, 10% glycerol), containing 200 μM ligand (T₃, for TRβ, or estradiol, diethylstilbestrol, genistein or tamoxifen for ERα).
(§2) Subsequently 10 μL of diluted protein was added to 10 μL of fluorescent coregulator peptide (20 nM) in 384-well plates yielding final protein concentrations of […] and 10 nM fluorescent peptide concentration. The samples were allowed to equilibriate for 30 minutes. Binding was then measured using fluorescence polarization (excitation λ at 485 nm, emission λ at 530 nm) on an Analyst AD (available from Molecular Devices).
(§3) All experiments were carried out in quadruplicate, with each iteration containing the positive and negative controls, and 10-12 dose points. The data were then fit using Klotz plots to determine IC₅₀ values using nonlinear regression analysis that fits the data to a modification of the model of Heyduk and Lee. (Heyduk et al., Proc. Natl. Acad. Sci., (1990), 1774; Heyduk et al., Nature, (1993), 364, 6437; Heyduk et al., Methods Enzymol., 274, 492. Further analysis was conducted using Hill and Scatchard plots to confirm number and homogeneity of binding sites as discussed hereinbelow.

[2] = molecular target: T2, hERα-LBD (ligand binding domain of estrogen receptor α) (human, UniProt P03372 297-554); assay: fluorescence polarization, hERα-LBD titrated, estradiol present; repeats Table 4; 100 may stand for above the assay limits
T2 construct: Assayed with estradiol, diethylstilbestrol, genistein or tamoxifen present; the ligand is named under assay in each row
T2 sequence (looked up): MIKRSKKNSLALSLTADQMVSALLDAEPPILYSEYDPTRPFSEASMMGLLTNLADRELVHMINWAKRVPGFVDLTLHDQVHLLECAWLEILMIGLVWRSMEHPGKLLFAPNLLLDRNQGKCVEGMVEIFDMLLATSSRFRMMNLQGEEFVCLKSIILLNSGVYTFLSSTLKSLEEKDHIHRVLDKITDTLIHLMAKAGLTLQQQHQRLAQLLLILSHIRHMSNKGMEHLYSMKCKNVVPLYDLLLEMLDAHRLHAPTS
Method: as §1, §2, §3

[3] = molecular target: T2, hERα-LBD (ligand binding domain of …); assay: fluorescence polarization, labelled peptide 10 nM, hERα-LBD titrated, estradiol present; 100 may stand for above the assay limits
Method: as §1, §2, §3

[4] = molecular target: T2, hERα-LBD (ligand binding domain of …); assay: fluorescence polarization, labelled peptide 10 nM, hERα-LBD titrated, genistein present; 100 may stand for above the assay limits
Method: as §1, §2, §3

[5] = molecular target: T2, hERα-LBD (ligand binding domain of …); assay: fluorescence polarization, labelled peptide 10 nM, hERα-LBD titrated, diethylstilbestrol present; 100 may stand for above the assay limits
Method: as §1, §2, §3

Measured: Kd

C(5‑iodoacetamidofluorescein)KKENNALLRYLLDRDDPSD [SRC3-3 coregulator peptide]
100 µM: all assays above
